This assay deals with T1, Ang2 (UniProt O15123 19-496).
T1 sequence: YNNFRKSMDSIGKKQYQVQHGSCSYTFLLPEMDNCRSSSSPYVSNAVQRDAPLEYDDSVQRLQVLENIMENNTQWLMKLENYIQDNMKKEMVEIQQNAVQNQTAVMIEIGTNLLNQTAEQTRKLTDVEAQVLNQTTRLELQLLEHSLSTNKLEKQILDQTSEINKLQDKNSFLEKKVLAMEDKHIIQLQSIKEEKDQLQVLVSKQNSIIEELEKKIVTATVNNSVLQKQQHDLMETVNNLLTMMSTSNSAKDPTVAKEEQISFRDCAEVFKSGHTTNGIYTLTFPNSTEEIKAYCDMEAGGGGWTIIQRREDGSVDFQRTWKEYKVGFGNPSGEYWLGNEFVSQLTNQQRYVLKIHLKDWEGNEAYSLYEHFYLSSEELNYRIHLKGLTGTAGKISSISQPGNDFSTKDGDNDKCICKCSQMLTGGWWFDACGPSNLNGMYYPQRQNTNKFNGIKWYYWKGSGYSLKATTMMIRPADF
Nature of the assay: SPR.

As usually defined, the Kd is the free concentration of one partner at which half of the binding sites on the other are occupied at equilibrium, for simple one-to-one binding. On to LWDDCYFFPNPPHCYNSP (designed binder) [MBP-a1], for which the Kd worked out at 22.2 ± 0.08 nM.

For the origin of these results see article PMC3893231 (mAbs, 2013).
